The source of these data is PMC5070160, “Efficient biosynthesis of ethyl (R)-4-chloro-3-hydroxybutyrate using a stereoselective carbonyl reductase from Burkholderia gladioli” (BMC Biotechnology, 2016).

By Km is commonly meant the concentration of substrate that gives half-maximal velocity. The Vmax is the top rate of the reaction or transport when substrate is in excess. As usually defined, the kcat is the number of substrate molecules converted per active site and unit of time at saturation. The kcat/Km is the turnover number divided by the Michaelis constant.

Substrate in series [1]: NC(=O)C1=CN([C@@H]2O[C@H](COP(=O)(O)OP(=O)(O)OC[C@H]3O[C@@H](n4cnc5c(N)ncnc54)[C@H](OP(=O)(O)O)[C@@H]3O)[C@@H](O)[C@H]2O)C=CC1
Put plainly: purified protein. It is filed as biochemical, Burkholderia gladioli. The settings on record: apparent, COBE (ethyl 4-chloro-3-oxobutanoate) 50 mM, NADPH 0.01-0.5 mM, pH 6.5, 40 °C, varied: cofactor.

Substrate in series [2]: NC(=O)C1=CN([C@@H]2O[C@H](COP(=O)(O)OP(=O)(O)OC[C@H]3O[C@@H](n4cnc5c(N)ncnc54)[C@H](O)[C@@H]3O)[C@@H](O)[C@H]2O)C=CC1
The experiment in a line: purified protein. Format: biochemical, Burkholderia gladioli. As to conditions: apparent, COBE (ethyl 4-chloro-3-oxobutanoate) 50 mM, NADH 0.01-0.5 mM, pH 6.5, 40 °C, varied: cofactor.

B1: BgADH3 (Burkholderia gladioli BSR3) (protein)
chain: MSETNSRRDFLRHAAAGTAGVAVAAVPGIAAAADGAPDAMPPLARMRNPHDLYPRAPFARQVQPVPGLASKMVPRPDHGETSYRGSNRLAGRKALVTGGDSGIGRAAAIAFAREGADVAINYLPVEESDAREVVALIRKEGRKCVAIPGDIRTEAFCRQLVERAVAELGGLDVLVSNAGHQQARDDIQDISSEQFEQTMKTNVYAPFWIAKAALPHMPAGSSVILTTSEQAFLPSANLLDYAPTKAANIAFVKALAKQQAPRGIRVNAVAPGATWTPLQTSGGQPPEVIDRFGQDNPTGRPAQPVELAPLYVTLASAESSFSSGQVFGANGATGAA
Take B1: in “purified protein [1]”, the Km came to 81 µM, the maximal velocity (Vmax) stood at 9.1 µmol/min/mg, the catalytic constant (kcat) is 10.6 s⁻¹ and the kcat/Km was 131000 M⁻¹ s⁻¹. Also, in the series “purified protein [2]”, the Km came to 58 µM, the Vmax stood at 3.4 µmol/min/mg, the catalytic constant (kcat) turned out to be 3.97 s⁻¹ and the catalytic efficiency (kcat/Km) is 68300 M⁻¹ s⁻¹.
